Reference: patent publication US20110136850A1

Legend:
[1] = biological target: topoisomerase I from H358 cells (serine-phosphorylated) (human) (UniProt P11387); experiment: IP/Western analysis, FIG. 5D upper panel lane 5
[2] = biological target: topoisomerase I from H358 cells (serine-phosphorylated) (human) (UniProt P11387); experiment: co-immunoprecipitation followed by Western analysis, 48 hours after Adp14 (moi 20 pfu/cell)
[3] = biological target: topoisomerase I from H358 cells (serine-phosphorylated) (human) (UniProt P11387); experiment: IP/Western analysis, FIG. 5D upper panel

Chain of topoisomerase I from H358 cells (serine-phosphorylated) (human) (P11387 2-765 limits assumed): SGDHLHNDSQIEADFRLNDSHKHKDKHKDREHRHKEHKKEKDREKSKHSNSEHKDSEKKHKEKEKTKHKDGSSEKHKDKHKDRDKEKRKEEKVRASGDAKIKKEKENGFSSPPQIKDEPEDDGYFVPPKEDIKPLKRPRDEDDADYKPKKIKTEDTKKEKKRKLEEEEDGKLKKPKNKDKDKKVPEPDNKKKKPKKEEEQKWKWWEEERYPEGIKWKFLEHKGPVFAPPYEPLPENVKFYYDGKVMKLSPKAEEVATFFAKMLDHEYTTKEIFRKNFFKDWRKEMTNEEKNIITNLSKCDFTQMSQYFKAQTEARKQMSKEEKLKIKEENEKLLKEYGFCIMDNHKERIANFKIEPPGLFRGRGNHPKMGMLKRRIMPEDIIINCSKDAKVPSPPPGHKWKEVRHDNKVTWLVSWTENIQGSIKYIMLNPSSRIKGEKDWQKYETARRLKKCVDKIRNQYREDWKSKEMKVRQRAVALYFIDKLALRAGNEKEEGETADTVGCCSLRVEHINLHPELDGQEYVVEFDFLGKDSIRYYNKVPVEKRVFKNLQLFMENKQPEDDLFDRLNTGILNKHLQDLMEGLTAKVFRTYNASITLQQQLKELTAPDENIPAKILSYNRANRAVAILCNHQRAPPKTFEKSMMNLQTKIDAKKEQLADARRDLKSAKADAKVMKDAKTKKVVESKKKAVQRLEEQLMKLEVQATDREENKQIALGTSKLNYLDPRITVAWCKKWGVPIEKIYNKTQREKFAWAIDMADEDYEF

p14ARF (ARF), cellular protein in nuclear extracts (endogenous or expressed from the Adp14 adenoviral vector) (from UniProt Q8N726 1-132)
3 fold: fold decrease in ARF/topoisomerase I complex formation in ARF siRNA-treated H358 cells [1] | fold increase of co-immunoprecipitated ARF-topoisomerase I complexes after Adp14 treatment against untreated H358 cells [2] | fold increase in ARF/topoisomerase I complex formation in Adp14-treated H358 cells against Ad1β-treated, control siRNA treated, or non-vector treated cells [3]
